Results as given in article PMC3668541, “Production of recombinant 1-deoxy-D-xylulose-5-phosphate synthase from Plasmodium vivax in Escherichia coli^” (FEBS Open Bio, 2013).

Experiments:
[1] = target: T1, P. vivax DXScc (DXS SH-2, DXS catalytic core) (Plasmodium vivax, UniProt A5K817); experiment: DXS–DXR coupled assay; assay type: biochemical
T1 construct: gene PVX_082790; catalytic core, N-terminal first 210 residues (signal and transit peptide) deleted; codon-optimized gene in E. coli; theoretical monomer 103,921 Da; homodimer
T1 sequence (A5K817 211-1111): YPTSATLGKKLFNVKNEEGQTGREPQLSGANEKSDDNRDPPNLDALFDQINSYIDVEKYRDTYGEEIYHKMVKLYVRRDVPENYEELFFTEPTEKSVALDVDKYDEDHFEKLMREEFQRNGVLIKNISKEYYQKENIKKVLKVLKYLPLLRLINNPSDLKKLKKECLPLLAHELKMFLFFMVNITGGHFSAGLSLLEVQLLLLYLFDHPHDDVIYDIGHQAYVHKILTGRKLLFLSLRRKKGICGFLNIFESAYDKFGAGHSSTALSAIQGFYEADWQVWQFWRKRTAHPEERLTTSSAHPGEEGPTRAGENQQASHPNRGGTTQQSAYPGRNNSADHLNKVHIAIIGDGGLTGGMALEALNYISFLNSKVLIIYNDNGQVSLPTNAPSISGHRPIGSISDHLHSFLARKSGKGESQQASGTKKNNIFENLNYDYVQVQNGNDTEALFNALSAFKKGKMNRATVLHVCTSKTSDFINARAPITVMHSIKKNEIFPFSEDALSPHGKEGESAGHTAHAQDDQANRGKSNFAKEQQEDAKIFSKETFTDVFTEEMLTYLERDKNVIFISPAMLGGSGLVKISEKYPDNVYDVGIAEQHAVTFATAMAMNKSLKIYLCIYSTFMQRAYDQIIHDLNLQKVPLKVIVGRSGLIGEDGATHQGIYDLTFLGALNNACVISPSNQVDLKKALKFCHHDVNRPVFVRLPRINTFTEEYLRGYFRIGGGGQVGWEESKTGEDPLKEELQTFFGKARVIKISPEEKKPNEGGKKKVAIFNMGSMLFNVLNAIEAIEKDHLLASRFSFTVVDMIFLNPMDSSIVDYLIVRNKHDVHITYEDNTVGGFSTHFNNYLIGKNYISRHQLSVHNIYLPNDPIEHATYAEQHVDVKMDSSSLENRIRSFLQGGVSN

[2] = target: Plasmodium vivax 1-deoxy-D-xylulose-5-phosphate synthase catalytic core (DXScc) (Plasmodium vivax); experiment: SEC; gel filtration chromatography under non-denaturing conditions of DXScc after Ni-NTA affinity chromatography; buffer and column not shown (Supplementary material)
DXS–DXR coupled assay [3] = substrate: CC(=O)C(=O)O; experiment: DXS–DXR coupled assay; assay type: biochemical, Plasmodium vivax; details: apparent; 0.1 mM GAP
Description: (§1) DXS–DXR coupled assay on P. vivax DXScc (DXS SH-2, DXS catalytic core)

DXS–DXR coupled assay [4] = substrate: O=C[C@H](O)COP(=O)(O)O; experiment: DXS–DXR coupled assay; assay type: biochemical, Plasmodium vivax; details: apparent; 4.0 mM pyruvate
Description: as §1

O=C(O)C(=O)CF [β-fluoropyruvate] showed a Ki [1] of 200 ± 100 µM.

“Plasmodium vivax 1-deoxy-D-xylulose-5-phosphate synthase catalytic core (DXScc) (enzyme)” showed a stoichiometry N [2] of 2.

B1: P. vivax DXScc (DXS SH-2, DXS catalytic core) (Plasmodium vivax Sal-1) (protein)
chain: YPTSATLGKKLFNVKNEEGQTGREPQLSGANEKSDDNRDPPNLDALFDQINSYIDVEKYRDTYGEEIYHKMVKLYVRRDVPENYEELFFTEPTEKSVALDVDKYDEDHFEKLMREEFQRNGVLIKNISKEYYQKENIKKVLKVLKYLPLLRLINNPSDLKKLKKECLPLLAHELKMFLFFMVNITGGHFSAGLSLLEVQLLLLYLFDHPHDDVIYDIGHQAYVHKILTGRKLLFLSLRRKKGICGFLNIFESAYDKFGAGHSSTALSAIQGFYEADWQVWQFWRKRTAHPEERLTTSSAHPGEEGPTRAGENQQASHPNRGGTTQQSAYPGRNNSADHLNKVHIAIIGDGGLTGGMALEALNYISFLNSKVLIIYNDNGQVSLPTNAPSISGHRPIGSISDHLHSFLARKSGKGESQQASGTKKNNIFENLNYDYVQVQNGNDTEALFNALSAFKKGKMNRATVLHVCTSKTSDFINARAPITVMHSIKKNEIFPFSEDALSPHGKEGESAGHTAHAQDDQANRGKSNFAKEQQEDAKIFSKETFTDVFTEEMLTYLERDKNVIFISPAMLGGSGLVKISEKYPDNVYDVGIAEQHAVTFATAMAMNKSLKIYLCIYSTFMQRAYDQIIHDLNLQKVPLKVIVGRSGLIGEDGATHQGIYDLTFLGALNNACVISPSNQVDLKKALKFCHHDVNRPVFVRLPRINTFTEEYLRGYFRIGGGGQVGWEESKTGEDPLKEELQTFFGKARVIKISPEEKKPNEGGKKKVAIFNMGSMLFNVLNAIEAIEKDHLLASRFSFTVVDMIFLNPMDSSIVDYLIVRNKHDVHITYEDNTVGGFSTHFNNYLIGKNYISRHQLSVHNIYLPNDPIEHATYAEQHVDVKMDSSSLENRIRSFLQGGVSN
notes: catalytic core, N-terminal first 210 residues (signal and transit peptide) deleted; codon-optimized gene in E. coli; theoretical monomer 103,921 Da; homodimer
For B1, the Km (DXS–DXR coupled assay [3]) was 870 ± 110 µM, the kcat (DXS–DXR coupled assay [3]) was 9.5 ± 0.5 s⁻¹ and the kcat/Km (DXS–DXR coupled assay [3]) was 11000 M⁻¹ s⁻¹. The Km (DXS–DXR coupled assay [4]) was 19 ± 4 µM, the kcat (DXS–DXR coupled assay [4]) was 11 ± 0.9 s⁻¹ and the kcat/Km (DXS–DXR coupled assay [4]) was 570000 M⁻¹ s⁻¹.
